Here are results for one protein from paper PMC8757444 (ACS Omega, 2021).

This series concerns the molecule itself. In words: dynamic light scattering.

B1: Encapsulin from Thermotoga maritima (natural protein)
chain: MEFLKRSFAPLTEKQWQEIDNRAREIFKTQLYGRKFVDVEGPYGWEYAAHPLGEVEVLSDENEVVKWGLRKSLPLIELRATFTLDLWELDNLERGKPNVDLSSLEETVRKVAEFEDEVIFRGCEKSGVKGLLSFEERKIECGSTPKDLLEAIVRALSIFSKDGIEGPYTLVINTDRWINFLKEEAGHYPLEKRVEECLRGGKIITTPRIEDALVVSERGGDFKLILGQDLSIGYEDREKDAVRLFITETFTFQVVNPEALILLKF
In the case of B1, the binding result is reported as “binds”.
